Experimental data published in US20090202574A1, “METHODS OF IMMUNE OR HAEMATOLOGICAL ENHANCEMENT, INHIBITING TUMOUR FORMATION OR GROWTH, AND TREATING OR PREVENTING CANCER” (priority 2004, published 2009).

What was measured:
[1] = test system: EL-4 target cells; assay: Anti-tumour CTL and/or NK cell cytolytic activity of splenocytes against EL-4 target cells; settings: Example 1; splenocytes at day 42; vs control diet
Experimental: Splenocytes were harvested 28 days following tumour cell injection, as specified. They were incubated at 37° C. with EL-4 target cells in graded E:T ratios in 96-well round-bottom plates. After a 4-hour incubation, 50 μl of supernatant was collected, and lysis was measured using the Cyto Tox 96 Assay Kit (Promega, Madison, Wis., USA). Background controls for non-specific target and effector cell lysis were included. After background subtraction, percentage of cell lysis was calculated using the formula: 100× (experimental-spontaneous effector-spontaneous target/maximum target-spontaneous target).

[2] = test system: EL-4 tumours; assay: EL-4 tumour growth in mice (s.c. flank tumour model); type: in vivo, C57BL/6 mice; settings: Example 1; oral diet; day 42; vs control diet
[3] = test system: IL-18; assay: IL-18 production by cultured intestinal loops; type: cell-based, mice; settings: Example 20; 400 and 800 μg/ml; 48 h; vs bovine serum albumin control protein
Experimental: Cytokine levels in the supernatants of homogenates of the small intestine were determined using a “sandwich” ELISA kit (Endogen, Woburn, Mass.). They were detected within standard curve ranges of 15-375 pg/ml for IL-4, 0-2450 pg/ml for IL-5, 15-1000 pg/ml for TNF-α, 0-3000 pg/ml for IFN-γ, 37-3000 pg/ml for IL-10, 31.3-2000 pg/ml for IL-12, and 31.3-2000 pg/ml for IL-18, respectively. Quantification of nitrite, indicative of NO production, was carried out by the Griess reaction (Sigma, USA). The results are expressed as the mean nitrite concentration (μM)±SD.
100% Fe-saturated Lf, natural Lf (less than 20% iron saturated), and bovine serum albumin control were added at 400 and 800 μg/ml to intestinal loops (2.5 cm segments of the small intestine) prepared from healthy 6 to 7 week-old female mice, which were kept in culture for 48 h. IL-18 levels released by the intestinal loops, and present in the supernatants of homogenates of the small intestine were determined using a “sandwich” ELISA kit as described above.

[4] = test system: IL-18; settings: WO 03/099323, cited from earlier work

| Molecule | anti-tumour CTL and/or NK cell activity of splenocytes [1] | inhibition in tumour size [2] [%] | increase in the levels of IL-18 in the intestine [3] [fold] | serum levels of IL-18 [4] | intestinal IL-18 levels ([4]; compared with recombinant human lactoferrin) |
| --- | --- | --- | --- | --- | --- |
| natural bLf: bovine lactoferrin extract from skim milk with natural levels of iron-saturation of approximately 5 to 15% (protein, UniProt P24627 20-708, looked up) Lactotransferrin: APRKNVRWCTISQPEWFKCRRWQWRMKKLGAPSITCVRRAFALECIRAIAEKKADAVTLDGGMVFEAGRDPYKLRPVAAEIYGTKESPQTHYYAVAVVKKGSNFQLDQLQGRKSCHTGLGRSAGWIIPMGILRPYLSWTESLEPLQGAVAKFFSASCVPCIDRQAYPNLCQLCKGEGENQCACSSREPYFGYSGAFKCLQDGAGDVAFVKETTVFENLPEKADRDQYELLCLNNSRAPVDAFKECHLAQVPSHAVVARSVDGKEDLIWKLLSKAQEKFGKNKSRSFQLFGSPPGQRDLLFKDSALGFLRIPSKVDSALYLGSRYLTTLKNLRETAEEVKARYTRVVWCAVGPEEQKKCQQWSQQSGQNVTCATASTTDDCIVLVLKGEADALNLDGGYIYTAGKCGLVPVLAENRKSSKHSSLDCVLRPTEGYLAVAVVKKANEGLTWNSLKDKKSCHTAVDRTAGWNIPMGLIVNQTGSCAFDEFFSQSCAPGADPKSRLCALCAGDDQGLDKCVPNSKEKYYGYTGAFRCLAEDVGDVAFVKNDTVWENTNGESTADWAKNLNREDFRLLCLDGTRKPVTEAQSCHLAVAPNHAVVSRSDRAAHVKQVLLHQQALFGKNGKNCPDKFCLFKSETKNLLFNDNTECLAKLGGRPTYEEYLGTEYVTAIANLKKCSTSPLLEACAFLTR | slightly enhanced | 11 | ~2 |  |  |
| bovine lactoferrin: bovine lactoferrin as reported in WO 03/099323, compared with recombinant human lactoferrin (protein, Bovine Lactoferrin, bovine lactoferrin as reported in WO 03/099323, compared with recombinant human lactoferrin) APRKNVRWCTISQPEWFKCRRWQWRMKKLGAPSITCVRRAFALECIRAIAEKKADAVTLDGGMVFEAGRDPYKLRPVAAEIYGTKESPQTHYYAVAVVKKGSNFQLDQLQGRKSCHTGLGRSAGWIIPMGILRPYLSWTESLEPLQGAVAKFFSASCVPCIDRQAYPNLCQLCKGEGENQCACSSREPYFGYSGAFKCLQDGAGDVAFVKETTVFENLPEKADRDQYELLCLNNSRAPVDAFKECHLAQVPSHAVVARSVDGKEDLIWKLLSKAQEKFGKNKSRSFQLFGSPPGQRDLLFKDSALGFLRIPSKVDSALYLGSRYLTTLKNLRETAEEVKARYTRVVWCAVGPEEQKKCQQWSQQSGQNVTCATASTTDDCIVLVLKGEADALNLDGGYIYTAGKCGLVPVLAENRKSSKHSSLDCVLRPTEGYLAVAVVKKANEGLTWNSLKDKKSCHTAVDRTAGWNIPMGLIVNQTGSCAFDEFFSQSCAPGADPKSRLCALCAGDDQGLDKCVPNSKEKYYGYTGAFRCLAEDVGDVAFVKNDTVWENTNGESTADWAKNLNREDFRLLCLDGTRKPVTEAQSCHLAVAPNHAVVSRSDRAAHVKQVLLHQQALFGKNGKNCPDKFCLFKSETKNLLFNDNTECLAKLGGRPTYEEYLGTEYVTAIANLKKCSTSPLLEACAFLTR |  |  |  | did not increase | lesser increase |
